Sequences and labels used below:
B1: ADC 56B-A-14 (bispecific antibody)
chain 1: not shown
chain 2: DIQMTQSPSSLSASVGDRVTITCKSSQSLLYTSSQKNYLAWYQQKPGKAPKLLIYWASTRESGVPSRFSGSGSGTDFTLTISSLQPEDFATYYCQQYYAYPWTFGQGTKVEIKGGGGSGGGGSGGGGSEVQLVESGGGLVQPGGSLRLSCAASGYTFTSYWLHWVRQAPGKGLEWVGMIDPSNSDTRFNPNFKDRFTISADTSKNTAYLQMNSLRAEDTAVYYCATYRSYVTPLDYWGQGTLVTVSSGGGGDKTHTCPPCPAPEAAGGPSVFLFPPKPKDTLMISRTPEVTCVVVDVSHEDPEVKFNWYVDGVEVHNAKTKPREEQYNSTYRVVSVLTVLHQDWLNGKEYKCKVSNKALAAPIEKTISKAKGQPREPQVCTLPPSRDELTKNQVSLSCAVKGFYPSDIAVEWESNGQPENNYKTTPPVLDSDGSFFLVSKLTVDKSRWQQGNVFSCSVMHEALHNHYTQKSLSLSPGK
modifications: linker-payload A-14 on reduced Cys sulfhydryls (sites not given); DAR of the whole ADC approximately 4
B2: ADC 38B-A-14 (bispecific antibody, human IgG1, kappa, L234A L235A)
light: not shown
heavy: not shown
chain: B1 chain 2
modifications: linker-payload A-14 on reduced Cys sulfhydryls (sites not given); DAR of the whole ADC approximately 6
B3: ADC 49B-A-05 (bispecific antibody, human IgG1, kappa, L234A L235A)
light: DIQMTQSPSSLSASVGDRVTITCKSSQSLLYTSSQKNYLAWYQQKPGKAPKLLIYWASTRESGVPSRFSGSGSGTDFTLTISSLQPEDFATYYCQQYYAYPWTFGQGTKVEIKRTVAAPSVFIFPPSDEQLKSGTASVVCLLNNFYPREAKVQWKVDNALQSGNSQESVTEQDSKDSTYSLSSTLTLSKADYEKHKVYACEVTHQGLSSPVTKSFNRGEC
heavy: not shown
chain: AIQLTQSPSSLSASVGDRVTITCRASQDISSALVWYQQKPGKAPKLLIYDASSLESGVPSRFSGSESGTDFTLTISSLQPEDFATYYCQQFNSYPLTFGGGTKVEIKGGGGSGGGGSGGGGSQVQLVESGGGVVQPGRSLRLSCAASGFTFSTYGMHWVRQAPGKGLEWVAVIWDDGSYKYYGDSVKGRFTISRDNSKNTLYLQMNSLRAEDTAVYYCARDGITMVRGVMKDYFDYWGQGTLVTVSSGGGGDKTHTCPPCPAPEAAGGPSVFLFPPKPKDTLMISRTPEVTCVVVDVSHEDPEVKFNWYVDGVEVHNAKTKPREEQYNSTYRVVSVLTVLHQDWLNGKEYKCKVSNKALAAPIEKTISKAKGQPREPQVCTLPPSRDELTKNQVSLSCAVKGFYPSDIAVEWESNGQPENNYKTTPPVLDSDGSFFLVSKLTVDKSRWQQGNVFSCSVMHEALHNHYTQKSLSLSPGK
modifications: linker-payload A-05 on reduced Cys sulfhydryls (sites not given); DAR of the whole ADC approximately 6
B4: ADC 49B-A-14 (bispecific antibody, human IgG1, kappa, L234A L235A)
light: B3 light
heavy: not shown
chain: B3 chain
modifications: linker-payload A-14 on reduced Cys sulfhydryls (sites not given); DAR of the whole ADC approximately 6
B5: ADC 55B-A-14 (bispecific antibody, human IgG1, kappa, L234A L235A)
light: B3 light
heavy: not shown
chain 1: AIQLTQSPSSLSASVGDRVTITCRASQDISSALVWYQQKPGKAPKLLIYDASSLESGVPSRFSGSESGTDFTLTISSLQPEDFATYYCQQFNSYPLTFGGGTKVEIKSSASTKGPSVFPLAPSSKSTSGGTAALGCLVKDYFPEPVTVSWNSGALTSGVHTFPAVLQSSGLYSLSSVVTVPSSSLGTQTYICNVNHKPSNTKVDKKVEPKSC
chain 2: QVQLVESGGGVVQPGRSLRLSCAASGFTFSTYGMHWVRQAPGKGLEWVAVIWDDGSYKYYGDSVKGRFTISRDNSKNTLYLQMNSLRAEDTAVYYCARDGITMVRGVMKDYFDYWGQGTLVTVSSASVAAPSVFIFPPSDEQLKSGTASVVCLLNNFYPREAKVQWKVDNALQSGNSQESVTEQDSKDSTYSLSSTLTLSKADYEKHKVYACEVTHQGLSSPVTKSFNRGECDKTHTCPPCPAPEAAGGPSVFLFPPKPKDTLMISRTPEVTCVVVDVSHEDPEVKFNWYVDGVEVHNAKTKPREEQYNSTYRVVSVLTVLHQDWLNGKEYKCKVSNKALAAPIEKTISKAKGQPREPQVCTLPPSRDELTKNQVSLSCAVKGFYPSDIAVEWESNGQPENNYKTTPPVLDSDGSFFLVSKLTVDKSRWQQGNVFSCSVMHEALHNHYTQKSLSLSPGK
modifications: linker-payload A-14 on reduced Cys sulfhydryls (sites not given); DAR of the whole ADC approximately 8
B6: ADC 07B-A-05 (bispecific antibody, human IgG1, kappa)
light: B3 light
heavy: not shown
chain: B3 chain with A265L, A266L, A360P, D387E, L389M
modifications: linker-payload A-05 on reduced Cys sulfhydryls (sites not given); DAR of the whole ADC approximately 6
B7: BsAb 10B (bispecific antibody, human IgG1, kappa)
light: not shown
heavy: not shown
chain: B1 chain 2 with A265L, A266L, A360P, D387E, L389M
notes: Fab-scFv-Fc (KIH) format; anti-EGFR Fab, anti-c-MET scFv; also called bispecific antibody 10B
B8: BsAb 49B (bispecific antibody, human IgG1, kappa, L234A L235A)
light: B3 light
heavy: not shown
chain: B3 chain
notes: Fab-scFv-Fc (KIH) format; anti-c-MET Fab, anti-EGFR scFv; also called BsB 49B; bispecific antibody 49B
B9: BsAb 07B (bispecific antibody, human IgG1, kappa)
light: B3 light
heavy: not shown
chain: B3 chain with A265L, A266L, A360P, D387E, L389M
notes: Fab-scFv-Fc (KIH) format; anti-c-MET Fab, anti-EGFR scFv; expressed in CHO-K1; also called bispecific antibody 07B
B10: BsAb 38B (bispecific antibody, human IgG1, kappa, L234A L235A)
light: not shown
heavy: not shown
chain: B1 chain 2
notes: Fab-scFv-Fc (KIH) format; anti-EGFR Fab, anti-c-MET scFv; also called bispecific antibody 38B

Where a chain is given by its changes, count along the chain named.

Results on ten molecules are retold here after patent US20250161474A1 (SICHUAN KELUN BIOTECH BIOPHARMACEUTICAL, published 2025).

T1 sequence (P08581 25-1390): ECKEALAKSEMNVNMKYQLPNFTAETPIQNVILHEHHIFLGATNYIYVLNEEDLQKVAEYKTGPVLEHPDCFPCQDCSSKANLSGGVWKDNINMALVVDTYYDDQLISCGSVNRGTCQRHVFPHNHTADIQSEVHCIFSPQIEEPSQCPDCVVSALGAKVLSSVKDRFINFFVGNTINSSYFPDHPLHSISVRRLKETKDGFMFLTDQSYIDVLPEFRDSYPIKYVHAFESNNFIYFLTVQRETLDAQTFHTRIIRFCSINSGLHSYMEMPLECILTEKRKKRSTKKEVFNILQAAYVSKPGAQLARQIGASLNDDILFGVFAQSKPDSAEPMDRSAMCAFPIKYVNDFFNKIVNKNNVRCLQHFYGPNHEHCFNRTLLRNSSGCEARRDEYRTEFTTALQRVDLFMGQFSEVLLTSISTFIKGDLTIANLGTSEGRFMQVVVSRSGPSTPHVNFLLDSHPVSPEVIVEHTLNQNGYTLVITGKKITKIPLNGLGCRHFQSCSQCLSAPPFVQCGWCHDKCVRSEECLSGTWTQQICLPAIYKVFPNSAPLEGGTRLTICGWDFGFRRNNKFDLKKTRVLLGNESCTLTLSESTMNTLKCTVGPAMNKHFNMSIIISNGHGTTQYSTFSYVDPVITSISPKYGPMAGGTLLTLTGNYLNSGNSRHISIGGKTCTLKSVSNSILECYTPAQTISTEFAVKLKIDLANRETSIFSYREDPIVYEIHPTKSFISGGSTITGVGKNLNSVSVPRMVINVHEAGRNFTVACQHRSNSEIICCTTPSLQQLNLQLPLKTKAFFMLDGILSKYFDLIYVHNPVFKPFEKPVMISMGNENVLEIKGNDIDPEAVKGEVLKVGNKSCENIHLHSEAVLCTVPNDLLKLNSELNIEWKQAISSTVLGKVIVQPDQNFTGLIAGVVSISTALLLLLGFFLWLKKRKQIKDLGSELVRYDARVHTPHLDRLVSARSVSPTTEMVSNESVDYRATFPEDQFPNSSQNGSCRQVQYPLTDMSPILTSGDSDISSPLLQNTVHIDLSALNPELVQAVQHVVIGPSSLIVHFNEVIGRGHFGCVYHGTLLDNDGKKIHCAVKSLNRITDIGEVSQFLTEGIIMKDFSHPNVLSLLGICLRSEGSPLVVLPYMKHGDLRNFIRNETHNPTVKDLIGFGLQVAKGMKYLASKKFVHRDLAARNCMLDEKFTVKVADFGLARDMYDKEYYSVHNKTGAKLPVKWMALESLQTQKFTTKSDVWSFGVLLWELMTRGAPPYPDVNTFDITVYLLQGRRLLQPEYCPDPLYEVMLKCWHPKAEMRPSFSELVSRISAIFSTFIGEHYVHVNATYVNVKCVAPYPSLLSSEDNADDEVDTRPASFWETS

One test addresses T1, human c-MET (human, UniProt P08581 25-1390). Put plainly: cell-based or functional assay.
As to B1, the “IC50, in vitro cell killing (CCK8) on EBC-1 cells” value (“IC50 … on EBC-1 cells” below) was found to be 2.95 nM and the “IC50, in vitro cell killing (CCK8) on MKN45 cells” value (from here on “IC50 … on MKN45 cells”) was determined as 1.17 nM.

As for B2, the “IC50 … on EBC-1 cells” value came to 1.03 nM and the “IC50 … on MKN45 cells” value is 0.3 nM.

With B3, the “IC50 … on EBC-1 cells” value worked out at 1.08 nM and the “IC50 … on MKN45 cells” value amounted to 0.68 nM.

Turning to B4, the “IC50 … on EBC-1 cells” value worked out at 2.93 nM and the “IC50 … on MKN45 cells” value came to 0.57 nM.

B5: the “IC50 … on EBC-1 cells” value is 0.42 nM and the “IC50 … on MKN45 cells” value was 0.4 nM.

With B6, the “IC50 … on EBC-1 cells” value was 0.48 nM.

The next test deals with T1, human c-MET. Nature of the test: flow cytometry on EBC-1 cells (highly express c-MET). The source says: (§1) A flow cytometer (Beckman, model Cytoflex) was used to detect the interaction between anti-human EGFR/c-MET bispecific antibodies and their conjugates and human gastric cancer cells MKN45 (Nanjing Cobioer Biosciences) and human gastric cancer cells overexpressing human EGFR MKN45-EGFR (Kelun-Biotech), human lung squamous cell carcinoma EBC-1 (Nanjing Cobioer Biosciences), human lung squamous cell carcinoma EBC-1-EGFR overexpressing human EGFR (Kelun-Biotech), human non-small cell lung cancer cell HCC827 (ATCC™), and human epidermal squamous cell carcinoma cell A431 (Nanjing Cobioer Biosciences). The protocol was as follows.
(§2) The adherent cells were digested with Trypsin-EDTA solution (0.25%) (Shanghai BasalMedia) and the cell density adjusted to 4.0×10⁶ per mL. The cells were washed twice with 1% BSA and resuspended in 1% BSA solution. Then 50 μL cell suspension was added to each well of a 96-well plate (the number of cells was 2×10⁵ per well). The antibody and its conjugate were diluted with 1% BSA (final concentration 10 µg/mL, 3-fold gradient dilution, a total of 11 concentration points). Then 50 μL of the diluted antibody and ADC were added to the wells of the 96-well plate and the plate was incubated at 4° C. for 60 minutes. The wells of the 96-well plate were then washed twice with 1% BSA, 50 μL of diluted secondary antibody was added to each well, and the 96-well plate was incubated at 4° C. for 30 minutes. Then the cells were washed twice with 1% BSA, and the cells were resuspended in 200 μL of 1% BSA and subjected to flow cytometry detection.
A general note: Flow cytometry measures light scatter and fluorescence of single cells or particles in a stream.
As for B7, the EC50 (usually the concentration giving half of the maximal effect) is 1.51 nM.

On to B2, for which a half-maximal effect (EC50) was put at 1.29 nM.

For the molecule B3, the EC50 came to 0.95 nM.

B4 showed an EC50 of 1.51 nM.

Regarding B8, the EC50 was found to be 1.32 nM.

Consider B6, for which a half-maximal response (EC50) required 1.47 nM.

Turning to B9, a half-maximal response (EC50) required 1.46 nM.

Another test has as its target T1, human c-MET. Nature of the test: flow cytometry on MKN45 cells (highly express c-MET).
Description: as §1, §2
For the molecule B7, a half-maximal effect (EC50) was put at 1.1 nM.

In turn, B10 registered an EC50 of 1.16 nM.

As for B3, the half-maximal effective concentration (EC50) was 1.58 nM.

In turn, B4 yielded an EC50 of 1.06 nM.

In the case of B8, the response was half-maximal at 0.34 nM (EC50).
